According to the nanobody polyreactivity screen of Harvey et al. (2022):

Assay: yeast display, Sf9 membrane polyspecificity reagent, FACS + sequencing; frameworks hold sequencing errors
Procedure, shortened: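 Sorting gates, low and high (top ~1%), were placed on anti-HA fluorescence to track expression and on streptavidin fluorescence to track reagent binding. A clone's polyreactivity label is taken from the gate it came out of. The reagent was 10% biotinylated, detergent-solubilized Sf9 membrane, applied for 1 hour at 4 °C to galactose-induced yeast display cells.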

## QVQLEESGGGLVQAGGSLRISCAASGRTFYVNAMGRSRQAPGKERELVAAIRYSDGRTYYADSVKGRFTISRDNAKNTVYLQMNSLKPEDTAVYYCAADTRFISRENYWGQGTQVTVSS
  polyreactivity (PSR sort gate): high polyreactivity

## QVQLVESGGGLVQAGGSLRLSCAASGFIFEKYTMGWYRQAPGKERELVAAITWNGGSTYYADSVKGRFTISRDNAKNTVYLQMNSLKPEDTAVYYCAARVGWNKRRYDYWGQGTQVTVSS
  polyreactivity (PSR sort gate): low polyreactivity

## QVQLVESGGGIVQAGGSLRLSCADSGFTFAFYAMGRYRQAPRKERELVAAISSGGGNTYYADSVKGRFTISRDNAKNTVYLQMNSLNPEDTAVYYCATRYISQGGYWGQGTQVTVSS
  polyreactivity (PSR sort gate): high polyreactivity

## QVLLVESCGGLVQAGGSLRLSCAASGRIFPLYAMGWYRQAPGKERELVAAISSGGTTYYADSVKGRFTISRDNAKNTVYLQMNSLKPEDTAVYYCNVEYVISWWMYDYWGQGTQVTVSS
  polyreactivity (PSR sort gate): low polyreactivity

## QVQLVESGGGLVQAGGSLRLSCAASGSIFVINPMGWYRQAPGNERELVAAISDSGTGTYYADSVKGRFTISRDNAKNTVYLQMNSLKPEDTAVYYCAADYYYRYRIYDYWGQGTQVTASS
  polyreactivity (PSR sort gate): low polyreactivity

## QVQLVESGGGLVQAGGSLRLSCAASGSTFAVYAMGWYRPAPGKERELVAGISSRGGRTYYADSVKGRFTISRDNAKNTVYLQMNSLKPEDTAVYYCAARFKGNPDRYGYWGQGTQVTVSS
  polyreactivity (PSR sort gate): high polyreactivity

## QVQLVESGGGLVQAGGSLRLSCAASGRTFYSNAMGWYRQAPGKERELVAAITSTDDSTYYADSVKGRFTISRDNAKNTVYLPMNSLKPEDTAVYYCAAESGYPVYTYVSSGDYWGQGTQVTVSS
  polyreactivity (PSR sort gate): low polyreactivity

## QVQLVESGGGLVQAGGSLRLSCAASGSIFFSYAMGWYRQAPGKERELVAAIDYSGGGTYYADSVKGRFTISRDNAKNTVYLQMNSLKPEDTAVYYCNSDTEVWAVTFISYRALNYWGQGTQVTVSS
  polyreactivity (PSR sort gate): low polyreactivity

## QVQLVESGGGLVQAGGSLRLSCAASGSIYRRYAMGWYRQAPGKERELVAAINQSGGRTYYADSVKGRFTISRDNAKNTVYLQMNSLKPEDTAVYYCAARYYGRVGGDSIGYNYWGQGTQVTVSS
  polyreactivity (PSR sort gate): high polyreactivity

## QVQLVESGGGLVQAGGSLRLSCAASGFIFWSYAMGWYRQAPGKERELVAAISWSGGRTYYADSVKGRFTISRDNAKNTVYLQMNSLKPEDTAVYYCAAVKRYSSQYPALDYWGQGTQVTVSS
  polyreactivity (PSR sort gate): high polyreactivity

## QVQHVESGGGLVQAGGSLRLSCAASGSIFYTYPMGWNRQAPGKERELVAAISFSDGDTYYADSVKGRFTISRDNAKNTVYLQMIRLKPVDTAVYYCNDYVYLPNYPYDYWGQGTHVTVSS
  polyreactivity (PSR sort gate): low polyreactivity

## QVQLVESGGVLVQAGGSLRLSCAASARIFAYSVMGWYRQAPGKEREFVAAISWSGGRTYYAHSVKGRFTISRDNAKNTVYLQMNSLKPEDTAVYYCNAGRPLWLAYGMDYWGQGTQVTVSS
  polyreactivity (PSR sort gate): low polyreactivity

## QVQLVESGGGLVQAGGSLRLSCAASGFIFVYNDMGWYRQAPGKERELVAAISSSGGSTYYADSVKGRFTISRDNAKNTVYLKMNSLKAEDTAVYYCAKTGWNLDYSYSTDGYDYWGQGTLVTVSS
  polyreactivity (PSR sort gate): high polyreactivity

## QVQLVESGGGLVQAGGSLRLSCAASGSTFPRNAMGWYRQAPGKERELVARITWSGGDTYYADSVKGRFTISRDNSKNTVYLQMISLKPEDTAVYYCAARWYRSVLAKVGYGYWGQGTQVTVSS
  polyreactivity (PSR sort gate): high polyreactivity

## QVQLVESGGGLVQAGGRLRLTCAASGRNYNGNAMGRYRQAPGTERELVAGIDSDGSTNYADSVKGRFTISRDNAKNTVYLQMNSLKPDDTAGYYCAAVQGYRFYEYYYWGQGTQVTVSS
  polyreactivity (PSR sort gate): low polyreactivity

## QVQLVESGGGLVQAGGSLRLTCAASGGTLRYYGMGWYRQAPGKEWEFVAAISWSGDSTYYADSVKGRFTISRDNAKTTVYLQMNSLKPEDTAVYFCAATYYLTYYYGQANHGYDYWGQGTQVTVSS
  polyreactivity (PSR sort gate): low polyreactivity

## QVQLVESGGGLVQAGGSLRLSCAASGSILRVYAMGWYRQAPGKERELVAAISWGDGRTYYADSVKGRFTISRDNAKNTDYLQMNSLKPEDTAVYYCNADVFIQYWGVLIREYDYWGQGTQVTVSS
  polyreactivity (PSR sort gate): high polyreactivity

## QVQLVESGGGLVQAGGSLRLSCAASGRIFHRYAMGWYRQAPGKERELVAAITRGGSTNYADSVKGRFTISRDNAKNTVYLQMNSLKPEDTAVYYCNADVYAWYLSHRYDYWGQGTQVTVSS
  polyreactivity (PSR sort gate): low polyreactivity

## PVQLVESGGGLVQAGGSLRLTCAASGFTLTSNAMGWYRQAPGKERELVAAISKSGGSTHYADSVKGRFTISRDNAKNTVYLQMNSLKAEDTAVYYCATPYHRRFKGGDYWGQGTQVSVSS
  polyreactivity (PSR sort gate): high polyreactivity

## QVQLVESGGGLVQAGGSLRLSCAASGRISHYNAMGWYRQAPGKERELVAAISSRGGSTYYADSVKGRFTISRDIAKNTVYLQMNSLKPEDTAVYYCADTAGYWGQGTQVTVSS
  polyreactivity (PSR sort gate): high polyreactivity

## QVQLVESAAGLVQAGGSLRLSCAASGITFYRNAMGWYRQARGNEMELGAAITWNGGRTYYADSVKGRFTISRDNAKNTVYLQMNSLKPEDTALYYCAADSGTRNLASYRYYYWGQGTQVTVSS
  polyreactivity (PSR sort gate): high polyreactivity

## QVQLVESGGGLVQAGGSLRLSCAASGFTFRYYAMGWYRQAPGKERELVASITSSGSTNYADSVKGRFTISRDNAKNTVYLQMNSLKPEDTAVYYCAKGWGSDPFRKYGDYWGQGTQVTVSS
  polyreactivity (PSR sort gate): high polyreactivity

## QDQLVESGGGLVQAGGSLRLSCAASGSIFGPYAMGWYRQAPGKERELVAAITYRGDSTYYADSVKGRFTISRDYAKNTVYLQMNSLKPEDTAVYYCAAEYIYDLWEEYWGQGTQVTVSS
  polyreactivity (PSR sort gate): high polyreactivity

## QVQLVESGGGLVQAGGSLRLSCAASGSIFAVNTMGWYRQAPGKERELVAAISQRGSSTYYADSVKGRFTISRDNAKNTVYLKMNSMKPEDTAVFFCAKRFIYGLYNYWGQGTQVTVSS
  polyreactivity (PSR sort gate): high polyreactivity

## QVQLVESGGGLVQAGGSLRLICAASGITFRLNVMGWDRQAPGKERELVARISRAGSTKYADSVKGRFTISRDNAKNTVYLQMNCLKPEDTAVYYCNRYYRRATKVGYWGQGTQVTVSS
  polyreactivity (PSR sort gate): high polyreactivity

## QVQLVESGGGLVQAGGSLRLSCAASGIIFTFYTMGWYRQAPGKERELVAAITWSGGSTNYADSVKGRFTISRDNAKNTVYLQMNSLKPEDTAVYYCAAQGYPQSPPWEDYWGQGTQVTVSS
  polyreactivity (PSR sort gate): low polyreactivity

## QVHLVESGGGLVQAGGTLRLSCAASGSIFATYGMGSYRQAPGKERELVAAITSSGGSTYYADSVKGRFTISRDHAKNTVYLQMNSLKPEDTAVYYFAADSYIIWYGSVVSYGEDSWGQGTQVTVSS
  polyreactivity (PSR sort gate): low polyreactivity

## QVQLVESGGGLVQAGGSLRLSCAASGFIFGYYAMGWYRQAPGKERELVAAISRGGITYYADSVKGRFTISRDNAKNTVYLQMNSLKPEDTAVYYCAAPNRYSVPMYYWGQGTQVTVSS
  polyreactivity (PSR sort gate): low polyreactivity

## QVQLVESGGGLDQAGGSLRLTCAASGSTFQFYAMGWYRQAPGKERYLVAAISGAGGSTYYADSVKGRFTISRDNAKNTVYLQMNILKPEDTAVYYCNKVRRKQSVLTFDYWGQGTQVTVSS
  polyreactivity (PSR sort gate): high polyreactivity

## QVQLVESGGGLVQAGGSLRLSCAASGRTFASYAMGWYRQATGKERELVAAITGSGGSTYYADSVKGRFTISRDNAKNTVYLQMNSLKPEDTAVYYCNKGPHYPVYLEYIVGYDYWGQGTQVTVSS
  polyreactivity (PSR sort gate): low polyreactivity

## QVQLVESGGGLVQAGGSLRICCADSGLTFRFYSSGWYRQAPGKEMELVAAISRSGGSTYYADSVKGRFTISRDNAKNTVYLQMNSLKPEDSAVYYCAAGRRGGKHGGTRGGDYWGQGTQVTVSS
  polyreactivity (PSR sort gate): high polyreactivity
